The text below walks through data of publication PMC4610397 (Cellular and molecular bioengineering, 2015).

Ends that are not written are not given here. * marks the point of attachment. LacNAc = N-acetyllactosamine (disaccharide N-linked to the Asn side chain), CC(=O)N[C@@H]1[C@@H](O)[C@H](O[C@@H]2O[C@H](CO)[C@H](O)[C@H](O)[C@H]2O)[C@@H](CO)O[C@H]1*; βGlcNAc = CC(=O)N[C@@H]1[C@@H](O)[C@H](O)[C@@H](CO)O[C@H]1*

Data set [1] deals with the molecule itself. The data set is described as follows: circular dichroism + transmission electron microscopy. Background: Circular dichroism is widely used to follow secondary structure.
In data set [2] the target is T1, Q11.
T1 peptide: Ac-QQKFQFQFEQQ-NH2
Nature of the data set: co-sedimentation.

Regarding N(LacNAc)SGSGQQKFQFQFEQQ-NH2 [LacNAc-Q11], the binding result in data set [1] was “binds”.

With N(βGlcNAc)SGSGQQKFQFQFEQQ-NH2 [GlcNAc-Q11], the binding result in data set [1] and in data set [2] was “binds” each time.
